According to the Human Domainome abundance scans (Beltran et al. 2025):
± gives the uncertainty stated by the source.

B1: Zinc finger MYM-type protein 6, residues 427 to 504; numbered along this chain, O95789 (parent)
chain: KLKCQHCNHLFATKPELLFYKGKMFLFCGKNCSDEYKKKNKVVAMCDYCKLQKIIKETVRFSGVDKPFCSEVCKFLSA

Variants of: B1
Test: abundance fitness (aPCA) (normalised: wild type 0, dead -1); higher = more abundant; growth selection in yeast, the domain comes from the species named
Conditions: Homo sapiens

Variant	abundance fitness
KLKCQHCNHLFATKPELLFYKGKMFLFCGMNCSDEYKKKNKVVAMCDYCKLQKIIKETVRFSGVDKPFCSEVCKFLSA	-0.059 ± 0.038
KLKCQHCNHLFATKPELLFYKGKMFLFCGKNCSEEYKKKNKVVAMCDYCKLQKIIKETVRFSGVDKPFCSEVCKFLSA	-0.033 ± 0.036
KLKCQHCNHLFATKPELLFYKGKMFLFCGKNCSQEYKKKNKVVAMCDYCKLQKIIKETVRFSGVDKPFCSEVCKFLSA	-0.034 ± 0.048
KLKCQHCNHLFATKPELLFYKGKMFLFCGKNCSTEYKKKNKVVAMCDYCKLQKIIKETVRFSGVDKPFCSEVCKFLSA	-0.133 ± 0.079
KLKCQHCNHLFATKPELLFYKGKMFLFCGKNCSDEYKKKNKVAAMCDYCKLQKIIKETVRFSGVDKPFCSEVCKFLSA	-0.423 ± 0.19
KLKCQHCNHLFATKPELLFYKGKMFLFCGKNCSDEYKKKNKVVAMCDYCKLQKIIKETVRFSGVDKPFCSEVCKFLSC	-0.897 ± 0.43
KLKCQHCNHLFATKPELLFYKGKMFLFCGKNCSDEYKKKNKVVAYCDYCKLQKIIKETVRFSGVDKPFCSEVCKFLSA	0.35 ± 0.14
KLKCQHCNHLFATKPELLFYKGKMFLFCGKNCSDEYKKKNKVVAMCDYCKLQKIIKETVRFSGVDKPYCSEVCKFLSA	0.439 ± 0.39
KLKCQHCNHLFATKPELLFYKGKMFLFCGKNCSDEYKMKNKVVAMCDYCKLQKIIKETVRFSGVDKPFCSEVCKFLSA	-0.063 ± 0.057
KLKCQHCNHLFATKPELLFYKGKMFLFCGKNCSDEYKSKNKVVAMCDYCKLQKIIKETVRFSGVDKPFCSEVCKFLSA	-0.027 ± 0.038
KLKCQHCNHLFATKPELLFYKGKMFLFCGKNCSDEYKKKNKVVAMCDYCKLQKIAKETVRFSGVDKPFCSEVCKFLSA	0.243 ± 0.082
KLKCQHCNHLFATKPELLFYKGKMFLFCGKNCSDEYKKKNKVVAMCDYCKLQKIMKETVRFSGVDKPFCSEVCKFLSA	0.211 ± 0.31
KLKCQHCNHLFATKPELLFYKGKMFLFCGKNCSDEYKKKNKVVAMCRYCKLQKIIKETVRFSGVDKPFCSEVCKFLSA	-0.394 ± 0.09
KLKCQHCNHLFATKPELLFYKGKMFLFCGKNCSDEYKKKNKVVAMCDYCKLQKIIKETVRFSGVDKPFTSEVCKFLSA	-0.902 ± 0.24
KLKCQHSNHLFATKPELLFYKGKMFLFCGKNCSDEYKKKNKVVAMCDYCKLQKIIKETVRFSGVDKPFCSEVCKFLSA	-0.823 ± 0.064
KLKCQHCNHLFATKPELLFRKGKMFLFCGKNCSDEYKKKNKVVAMCDYCKLQKIIKETVRFSGVDKPFCSEVCKFLSA	-0.121 ± 0.03
KLKCQHCNHLFATKPELLFYKGKMFLFCGKHCSDEYKKKNKVVAMCDYCKLQKIIKETVRFSGVDKPFCSEVCKFLSA	0.062 ± 0.19
KLKCQHCNHLFATKPELLFYKGKMFLFCGKPCSDEYKKKNKVVAMCDYCKLQKIIKETVRFSGVDKPFCSEVCKFLSA	-0.018 ± 0.041

Variant	abundance fitness
KLKCQHCNHLFATKPELLFYKGKMFLFCGKNCSDEYKKKNKVVAMCDYCKLQKIIKATVRFSGVDKPFCSEVCKFLSA	-0.129 ± 0.1
KLKCQHCNHLFATKPELLFYKGKMFLFCGKNCSDEYKKKNKVVAMCDYCKLQKIIKETVRFSGVDKPFCSEVCKFWSA	-0.174 ± 0.11
KLKCQHCNHLFATKPELLFYKGKMFLFCGKNCSDEYKKKNKVVAMCDYCKLQKIIKETVGFSGVDKPFCSEVCKFLSA	-0.215 ± 0.082
KLKCQHCNHLFATKPELLFYKGKMFLFCGKNCSDEYKKKNKVVAMCDYCKLQLIIKETVRFSGVDKPFCSEVCKFLSA	-0.351 ± 0.099
KLKCQHCNHLFATKPELLFYKGKMFLFCGKNCSDEYKKKNKVVAMCDYCKLQKIICETVRFSGVDKPFCSEVCKFLSA	-0.658 ± 0.43
KLKCQHCNHLFATKPELLFYKGKMFLFCGKNCSDEYKKKNKVVAMCDYCKLQKIIHETVRFSGVDKPFCSEVCKFLSA	-0.113 ± 0.15
KLKCQHCNCLFATKPELLFYKGKMFLFCGKNCSDEYKKKNKVVAMCDYCKLQKIIKETVRFSGVDKPFCSEVCKFLSA	-0.085 ± 0.042
KLKCQHCNSLFATKPELLFYKGKMFLFCGKNCSDEYKKKNKVVAMCDYCKLQKIIKETVRFSGVDKPFCSEVCKFLSA	-0.032 ± 0.039
KLKCQHCNHLFATKPELLFYKGKMFLFCGKNCSDEYKKKNKVVAMCDYCKLQKIIKETVRFSGVDTPFCSEVCKFLSA	-0.199 ± 0.33
KLKCQHCNHLFATKPELLFYKGKMFLFCGKNCSDEYKKKNKVVAMCDYCKLQKIIKETVRFSGVDKPFCSEQCKFLSA	0.562 ± 0.086
KLKCQHCNHLFATKPELLFYKGKMFLFCGKNCSDEYKKKNKVVAMCDYCKLQKIIKETVRFSGVDKPFCSEWCKFLSA	0.353 ± 0.094
KLKCQHCNHLFATKPELLFYKGKMFLFCLKNCSDEYKKKNKVVAMCDYCKLQKIIKETVRFSGVDKPFCSEVCKFLSA	-0.345 ± 0.04
KLKCQHCNHLFATKPELLFYKGKMFLFCEKNCSDEYKKKNKVVAMCDYCKLQKIIKETVRFSGVDKPFCSEVCKFLSA	-0.131 ± 0.069
KLKCQHCNHLFATEPELLFYKGKMFLFCGKNCSDEYKKKNKVVAMCDYCKLQKIIKETVRFSGVDKPFCSEVCKFLSA	-0.053 ± 0.033
KLKCQHCNHLFATKPELLFYKGKMFLFCGKNCSDEYKKKNKVVAMCDKCKLQKIIKETVRFSGVDKPFCSEVCKFLSA	-0.496 ± 0.22
KLKCQHCNHLFATKPELLFYKGKMFLFCGKNCSDEYKKKNKVVAMCDYCKLQKIIKEVVRFSGVDKPFCSEVCKFLSA	0.031 ± 0.1
KLKCQHCNHLFATKPELLFYKGKMFLFCGKNCSDEYKKKNKVVAMCDYCKLQKIIKETVRFSGVDKPFCSEVCKILSA	0.02 ± 0.22
